Results published in paper PMC11220700, “Activation and Purification of ß‐Glucocerebrosidase by Exploiting its Transporter LIMP‐2 – Implications for Novel Treatment Strategies in Gaucher's and Parkinson's Disease” (Advanced Science, 2024).
Positions count from the first letter of the chain named. In names and notes the source's numbering stands.

Experiments:
[1] = tested on: GCase variants in HEK 293T cells; experiment: GCase activity in LE fractions after co‐expression of GCase variants with FL‐LIMP‐2; type: cell-based, human; conditions: versus FL‐LIMP‐2‐3xD
Description: (§1) HEK 293T cells (Leibniz Institute DSMZ‐German Collection of Microorganism and Cell Cultures GmbH, Braunschweig, Germany) were cultured on TC dishes (Sarstedt, Nümbrecht, Germany, #83.3902, #83.3903) in Dulbecco's modified eagle medium (DMEM, Gibco, Carlsbad, CA, United States) supplemented with 10% fetal calf serum (FCS, PANbiotech, Aidenbach, Germany) and 1× penicillin/streptomycin (Sigma‐Aldrich, St. Louis, MO, United States, #P0781) at 37 °C, 5% CO2 and 95% humidity. Passaging was done at 70–90% confluence by detaching with trypsin (PAN‐Biotech, Aidenbach, Germany, #P10‐023100) for 5 min and transferring part of the culture to a new dish containing fresh medium. The HEK 293T cells were transfected using PEI at 60–70% confluence. For a 10 cm TC dish, the transfection mix was prepared by adding 5 µg plasmid DNA, 15 µg of PEI (ratio of 1:3 DNA to PEI) to 300 µl DMEM without FCS. After incubation for 25 min at room temperature, the mix was added to the cells. If the cell supernatant was analyzed, the cells were washed twice with phosphate‐buffered saline (PBS, Gibco, Carlsbad, CA, United States) and the medium was changed to DMEM without FCS 16 h after transfection.
Activity of GCase‐containing samples (recombinant protein, cell lysate, LE fractions, conditioned culture medium) was measured using the synthetic substrate 4‐methylumbelliferyl‐β‐D‐glucopyranoside (4MU, Merck Millipore, Billerica, MA, United States, #M3633). […] of the sample (cell supernatant, SEC fractions) or 2.5 µg of total protein from whole‐cell lysates were added to the well of a black 96‐well Maxisorp plate (ThermoFisher Scientific Inc., Waltham, MA, United States, #437 111). The reaction volume was then increased to 100 µL with GCase activity buffer (see paragraph “Cell Lysis”) and a final concentration of 1 µM of 4MU substrate was added. After incubation at 37 °C for 30 min, the reaction was stopped by adding 100 µL of stop solution (0.1 M glycine, pH 10.4). GCase activity was quantified via fluorescence of released 4‐methylumbelliferone (endpoint measurement) using an Infinite 200 Pro (TECAN, Männedorf, Switzerland), SpectraMax Gemini (Molecular Devices, San José, CA, United States) or ClarioStar (BMG LABTECH, Ortenberg, Germany) multiplate reader (λ ex: 365 nm; λ em: 445 nm).
For evaluation, all data sets obtained for GCase enzymatic activity were baseline‐corrected and normalized to the overall signal (either total signal or average of controls) within each replicate experiment to correct for signal differences between different measurement devices and replicate measurements.

[2] = tested on: GCase variants in HEK 293T cells; experiment: Western blot of GCase in LE fractions after co‐expression with FL‐LIMP‐2; type: cell-based, human; conditions: versus FL‐LIMP‐2‐3xD
Description: SDS PAGE was performed using a Tris‐glycine buffer system (resolving buffer: ThermoFisher Scientific Inc., Waltham, MA, United States, #HC2215; stacking buffer: ThermoFisher Scientific Inc., Waltham, MA, United States, #HC2115; running buffer: 25 mM Tris, 192 mM glycine, […]). All samples were prepared by adding 5× Laemmli buffer (0.3 M Tris‐HCl, pH 6.8, 10% w/v SDS, 50% v/v glycerol, 5% v/v β‐mercaptoethanol, 5% w/v bromophenol blue) to the samples in a 1:5 ratio and heating the samples for 5 min at 95 °C. The samples were then separated over a 10% polyacrylamide gel. After SDS PAGE, wet blotting was performed to transfer the proteins onto a PVDF membrane (Merck Millipore, Billerica, MA, United States, #IPFL00010). […] After incubation, membranes were washed three times with TBS‐T (TBS + 0.1% v/v TWEEN‐20) before incubation with secondary antibodies for 2 h at RT followed by three more washing steps with TBS‐T. The fluorescence‐based acquisition was done using an Odyssey (LI‐COR Biosciences, Lincoln, NE, United States) or IBright (ThermoFisher Scientific Inc., Waltham, MA, United States) imaging system. […]
Quantification of western blot data was performed in ImageStudioLite 5.2 (LI‐COR Biosciences, Lincoln, NE, United States). […]

[3] = tested on: GCase variants in HEK 293T cell lysates; experiment: GCase activity in cell lysates of cells overexpressing GCase variants; type: cell-based, human; conditions: 4MU; for GCase activity compared with mock: cell lysates, N370S n = 3, L444P n = 5
Description: as §1
Harvested cells were washed three times with cold PBS and pelleted (1.000 × g, 3 min, 4 °C). […] Protein concentrations were determined using Pierce BCA Protein Assay Kit (ThermoFisher Scientific Inc., Waltham, MA, United States, #23 227).
Activity of GCase‐containing samples (recombinant protein, cell lysate, LE fractions, conditioned culture medium) was measured using the synthetic substrate 4‐methylumbelliferyl‐β‐D‐glucopyranoside (4MU, Merck Millipore, Billerica, MA, United States, #M3633). […] GCase activity was quantified via fluorescence of released 4‐methylumbelliferone (endpoint measurement) using an Infinite 200 Pro (TECAN, Männedorf, Switzerland), SpectraMax Gemini (Molecular Devices, San José, CA, United States) or ClarioStar (BMG LABTECH, Ortenberg, Germany) multiplate reader (λ ex: 365 nm; λ em: 445 nm). […]

GCase variants = conditions: cited from earlier work
Source text: The link between GCase and PD was first established when studies found an increased prevalence of PD in GD patients and their relatives.^[ [14], [15], [16] ^] […] All three variants are characterized by compromised stability and/or enzyme activity. The L444P variant ...

B1: FL‐LIMP‐2: full‐length, membrane‐anchored wt LIMP‐2 (protein, UniProt Q14108 1-478, looked up)
chain: MGRCCFYTAGTLSLLLLVTSVTLLVARVFQKAVDQSIEKKIVLRNGTEAFDSWEKPPLPVYTQFYFFNVTNPEEILRGETPRVEEVGPYTYRELRNKANIQFGDNGTTISAVSNKAYVFERDQSVGDPKIDLIRTLNIPVLTVIEWSQVHFLREIIEAMLKAYQQKLFVTHTVDELLWGYKDEILSLIHVFRPDISPYFGLFYEKNGTNDGDYVFLTGEDSYLNFTKIVEWNGKTSLDWWITDKCNMINGTDGDSFHPLITKDEVLYVFPSDFCRSVYITFSDYESVQGLPAFRYKVPAEILANTSDNAGFCIPEGNCLGSGVLNVSICKNGAPIIMSFPHFYQADERFVSAIEGMHPNQEDHETFVDINPLTGIILKAAKRFQINIYVKKLDDFVETGDIRTMVFPVMYLNESVHIDKETASRLKSMINTTLIITNIPYIIMALGVFFGLVFTWLACKGQGSMDEGTADERAPLIRT
modifications: full-length
[1]; co‐expression with GCase E326K
  GCase activity in LE fractions, E326K: significant increases
[1]; co‐expression with GCase L444P
  GCase transport and activity, L444P: both transport and activity could not be rescued by LIMP‐2
[1]; co‐expression with GCase N370S
  GCase activity in LE fractions, N370S: no increase in enzymatic activity could be determined
[1]; co‐expression with GCase wt
  GCase activity in LE fractions, wt: significant increases
[2]
  lysosomal GCase levels of wt, E326K and N370S: exceeded those of the FL‐LIMP‐2‐3xD control

B2: E326K: PD‐associated GCase variant (protein)
chain: ARPCIPKSFGYSSVVCVCNATYCDSFDPPTFPALGTFSRYESTRSGRRMELSMGPIQANHTGTGLLLTLQPEQKFQKVKGFGGAMTDAAALNILALSPPAQNLLLKSYFSEEGIGYNIIRVPMASCDFSIRTYTYADTPDDFQLHNFSLPEEDTKLKIPLIHRALQLAQRPVSLLASPWTSPTWLKTNGAVNGKGSLKGQPGDIYHQTWARYFVKFLDAYAEHKLQFWAVTAENEPSAGLLSGYPFQCLGFTPEHQRDFIARDLGPTLANSTHHNVRLLMLDDQRLLLPHWAKVVLTDPEAAKYVHGIAVHWYLDFLAPAKATLGKTHRLFPNTMLFASEACVGSKFWEQSVRLGSWDRGMQYSHSIITNLLYHVVGWTDWNLALNPEGGPNWVRNFVDSPIIVDITKDTFYKQPMFYHLGHFSKFIPEGSQRVGLVASQKNDLDAVALMHPDGSAVVVVLNRSSKDVPLTIKDPAVGFLETISPGYSIHTYLWRRQ
[3]; HEK 293T cell lysates, versus wt, n = 5, mean ± SEM
  residual activity of GCase variant: 40.0 ± 2.2%
GCase variants
  residual activity of GCase variant (literature): ≈ 40%

B3: N370S: disease‐associated GCase variant (protein)
chain: B2 chain with K326E, N370S
[3]
  GCase activity compared with mock: do not differ significantly from the mock
GCase variants
  stability and activity of GCase variant (literature): stable with low residual activity

B4: L444P: disease‐associated GCase variant (protein)
chain: B2 chain with K326E, L444P
[3]
  GCase activity compared with mock: do not differ significantly from the mock
GCase variants
  stability and activity of GCase variant (literature): impaired stability and highly impaired activity
